In paper PMC9352680, “A comprehensive thermodynamic model for RNA binding by the Saccharomyces cerevisiae Pumilio protein PUF4”:
Residue numbers refer to the chain shown, from its start.

T1: PUF4 RNA-binding domain (Saccharomyces cerevisiae, UniProt P25339 537-888)
T1 sequence: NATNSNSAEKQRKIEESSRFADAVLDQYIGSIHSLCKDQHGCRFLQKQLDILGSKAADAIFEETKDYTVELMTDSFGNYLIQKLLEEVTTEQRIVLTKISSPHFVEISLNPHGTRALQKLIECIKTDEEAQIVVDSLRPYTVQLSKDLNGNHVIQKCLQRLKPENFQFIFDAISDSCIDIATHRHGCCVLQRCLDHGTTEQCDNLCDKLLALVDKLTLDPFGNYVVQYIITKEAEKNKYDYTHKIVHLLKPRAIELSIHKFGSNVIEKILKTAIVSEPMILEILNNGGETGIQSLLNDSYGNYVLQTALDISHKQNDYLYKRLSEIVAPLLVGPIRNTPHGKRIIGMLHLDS

B1: Id_i_S1_P3E.7_K3.3_C3.3_[T-3C]_[C-2T]_[T-1A]_H3.3_A3.1_F3.1_T3.2 (ssRNA)
RNA: UCUCUUCUAACACUAUAUAUCUCUU
B2: Id_i_S2_P3E.5_K3.1_C3.3_[T-3G]_[C-2T]_[T-1C]_H3.1_A3.1_F3.1_T3.2 (ssRNA)
RNA: UUUGAUUAAUAUGAUAUCGUUCUUUCUGUCUGUAUAUAUAUUCUUUCUCGAUAUCAUAUUAAUCUUU
B3: Id_i_S2_P3E.5_K3.1_C3.3_[T-3A]_[C-2G]_[T-1C]_H3.1_A3.1_F3.1_T3.2 (ssRNA)
RNA: B2 RNA with G28A, U29G
B4: Id_i_S2_P3E.5_K3.1_C3.3_[T-3A]_[C-2A]_[T-1C]_H3.1_A3.1_F3.1_T3.2 (ssRNA)
RNA: B2 RNA with G28A, U29A
B5: Id_i_S2_P3E.5_K3.1_C3.3_[T-3C]_[C-2T]_[T-1G]_H3.1_A3.1_F3.1_T3.2 (ssRNA)
RNA: B2 RNA with G28C, C30G
B6: Id_i_S2_P3E.5_K3.1_C3.3_[T-3C]_[C-2T]_[T-1C]_H3.1_A3.1_F3.1_T3.2 (ssRNA)
RNA: B2 RNA with G28C
B7: Id_i_S2_P3E.5_K3.1_C3.3_[T-3A]_[C-2T]_[T-1C]_H3.1_A3.1_F3.1_T3.2 (ssRNA)
RNA: B2 RNA with G28A
B8: Id_i_S2_P3E.5_K3.1_C3.3_[T-3C]_[C-2T]_[T-1A]_H3.1_A3.1_F3.1_T3.2 (ssRNA)
RNA: B2 RNA with G28C, C30A
B9: Id_i_S2_P3E.5_K3.1_C3.3_[T-3C]_[C-2A]_[T-1C]_H3.1_A3.1_F3.1_T3.2 (ssRNA)
RNA: B2 RNA with G28C, U29A
B10: Id_ii_S2_P3E.2_K3.1_C3.2_[C-2T]_[T-1G]_H3.1_A3.1_F3.1_T3.2 (ssRNA)
RNA: UUUGAUUAAUAUGAUAUCGUUCUUUCUUGUGUAUAUAUAUUCUUUCUCGAUAUCAUAUUAAUCUUU
B11: Id_ii_S2_P3E.3_K3.2_C3.2_[C-2T]_[T-1C]_H3.2_A3.1_F3.1_T3.2 (ssRNA)
RNA: B10 RNA with G29C, G31A
B12: Id_ii_S2_P3E.4_K3.3_C3.2_[C-2A]_[T-1C]_H3.3_A3.1_F3.1_T3.2 (ssRNA)
RNA: B10 RNA with U28A, G29C, U30A, G31C, U32A, A33C
B13: Id_i_S2_P3E.2_K3.1_C3.2_[C-2T]_[T-1C]_H3.1_A3.1_F3.1_T3.2 (ssRNA)
RNA: B10 RNA with G29C
B14: Id_ii_S2_P3E.4_K3.3_C3.2_[C-2T]_[T-1C]_H3.3_A3.1_F3.1_T3.2 (ssRNA)
RNA: B10 RNA with G29C, U30A, G31C, U32A, A33C
B15: Id_ii_S2_P3E.3_K3.2_C3.2_[C-2A]_[T-1C]_H3.2_A3.1_F3.1_T3.2 (ssRNA)
RNA: B10 RNA with U28A, G29C, G31A
B16: Id_ii_S2_P3E.4_K3.3_C3.2_[C-2A]_[T-1A]_H3.3_A3.1_F3.1_T3.2 (ssRNA)
RNA: B10 RNA with U28A, G29A, U30A, G31C, U32A, A33C
B17: Id_ii_S2_P3E.4_K3.3_C3.2_[C-2T]_[T-1A]_H3.3_A3.1_F3.1_T3.2 (ssRNA)
RNA: B10 RNA with G29A, U30A, G31C, U32A, A33C
B18: Id_i_S2_P3E.3_K3.2_C3.2_[C-2T]_[T-1A]_H3.2_A3.1_F3.1_T3.2 (ssRNA)
RNA: B10 RNA with G29A, G31A
B19: Id_ii_S2_P3E.2_K3.1_C3.2_[C-2A]_[T-1C]_H3.1_A3.1_F3.1_T3.2 (ssRNA)
RNA: B10 RNA with U28A, G29C
B20: Id_i_S2_P3E.2_K3.1_C3.2_[C-2T]_[T-1A]_H3.1_A3.1_F3.1_T3.2 (ssRNA)
RNA: B10 RNA with G29A
B21: Id_i_S1_P3E.7_K3.3_C3.3_[T-3C]_[C-2T]_[T-1C]_H3.3_A3.1_F3.1_T3.2 (ssRNA)
RNA: UCUCUUCUCACACUAUAUAUCUCUU
B22: Id_i_S1_P3E.6_K3.2_C3.3_[T-3A]_[C-2G]_[T-1C]_H3.2_A3.1_F3.1_T3.2 (ssRNA)
RNA: UCUCUUAGCUAUAUAUAUAUCUCUU
B23: Id_i_S1_P3E.7_K3.3_C3.3_[T-3G]_[C-2T]_[T-1C]_H3.3_A3.1_F3.1_T3.2 (ssRNA)
RNA: UCUCUUGUCACACUAUAUAUCUCUU
B24: Id_i_S1_P3E.7_K3.3_C3.3_[T-3A]_[C-2A]_[T-1A]_H3.3_A3.1_F3.1_T3.2 (ssRNA)
RNA: UCUCUUAAAACACUAUAUAUCUCUU
B25: Id_i_S1_P3E.6_K3.2_C3.3_[T-3A]_[C-2A]_[T-1A]_H3.2_A3.1_F3.1_T3.2 (ssRNA)
RNA: UCUCUUAAAUAUAUAUAUAUCUCUU
B26: Id_i_S1_P3E.6_K3.2_C3.3_[T-3C]_[C-2T]_[T-1C]_H3.2_A3.1_F3.1_T3.2 (ssRNA)
RNA: UCUCUUCUCUAUAUAUAUAUCUCUU
B27: Id_i_S1_P3E.5_K3.1_C3.3_[T-3A]_[C-2A]_[T-1A]_H3.1_A3.1_F3.1_T3.2 (ssRNA)
RNA: UCUCUUAAAUGUAUAUAUAUCUCUU
B28: Id_i_S1_P3E.6_K3.2_C3.3_[T-3C]_[C-2T]_[T-1A]_H3.2_A3.1_F3.1_T3.2 (ssRNA)
RNA: UCUCUUCUAUAUAUAUAUAUCUCUU
B29: Id_i_S1_P3E.5_K3.1_C3.3_[T-3C]_[C-2A]_[T-1C]_H3.1_A3.1_F3.1_T3.2 (ssRNA)
RNA: UCUCUUCACUGUAUAUAUAUCUCUU
B30: Id_i_S1_P3E.6_K3.2_C3.3_[T-3C]_[C-2G]_[T-1C]_H3.2_A3.1_F3.1_T3.2 (ssRNA)
RNA: UCUCUUCGCUAUAUAUAUAUCUCUU

Biological target: T1, PUF4 RNA-binding domain
Assay: Mg; RNA-MaP; 20 mM Na-HEPES pH 7.4, 30 mM KOAc, 0.75 mM MgCl2, 0.1% Tween-20, 5% glycerol, 0.1 mg/mL BSA, 2 mM DTT; 25 C; 0.0125-409.6 nM protein
Details: tags: N-His6-TEV cleaved; C-SNAP kept, Cy3B-labelled; label: tethered on chip by stalled RNA polymerase

With B1 as the binder, how does the Kd read?
Its Kd is greater than 2300 nM.

With B2 as the binder, how does the Kd read?
The Kd was 2.83 nM.

With B3 as the binder, how does the Kd read?
The Kd was 2.13 nM.

How did the Kd turn out when B4 was run?
Its Kd is 1.39 nM.

Which Kd does the source give for B5 here?
Its Kd is 1.23 nM.

Which Kd does the source give for B6 here?
Its Kd is 0.917 nM.

How did the Kd turn out when B7 was run?
The Kd was 1.7 nM.

B8 was tested. Which Kd did it give?
Its Kd is 3.83 nM.

With B9 as the binder, how does the Kd read?
The Kd was 1.09 nM.

With B10 as the binder, how does the Kd read?
The Kd was 1.57 nM.

How did the Kd turn out when B11 was run?
The Kd was 71.4 nM.

Which Kd does the source give for B12 here?
Its Kd is 242 nM.

How did the Kd turn out when B13 was run?
Its Kd is 1.18 nM.

B14 was tested. Which Kd did it give?
Its Kd is 222 nM.

For B15, which Kd is on record?
Its Kd is 66.8 nM.

With B16 as the binder, how does the Kd read?
The Kd was 238 nM.

With B17 as the binder, how does the Kd read?
Its Kd is 215 nM.

With B18 as the binder, how does the Kd read?
Its Kd is 560 nM.

For B19, which Kd is on record?
Its Kd is 1.6 nM.

Which Kd does the source give for B20 here?
Its Kd is 4.51 nM.

Which Kd does the source give for B21 here?
Its Kd is greater than 2300 nM.

B22 was tested. Which Kd did it give?
The Kd was 805 nM.

For B23, which Kd is on record?
Its Kd is 39 nM.

With B24 as the binder, how does the Kd read?
Its Kd is 2250 nM.

Which Kd does the source give for B25 here?
Its Kd is 1040 nM.

How did the Kd turn out when B26 was run?
Its Kd is 389 nM.

With B27 as the binder, how does the Kd read?
The Kd was 10.3 nM.

Which Kd does the source give for B28 here?
Its Kd is 341 nM.

How did the Kd turn out when B29 was run?
The Kd was 5.56 nM.

For B30, which Kd is on record?
Its Kd is 517 nM.
